For orientation: Kd means the constant that tells how readily two partners part at equilibrium.

The target in test [1] is PSR2 (untagged, purified from E. coli) (P. sojae) (UniProt E0W4V5). In words: ITC. (In general: ITC needs no label: the signal is the heat of the interaction.)
Test [2] concerns the target ATB’g (Arabidopsis PP2A B subunit) (Arabidopsis thaliana) (UniProt Q8RW96). Put plainly: ITC.
Test [3] addresses T1, PSR2 (untagged, purified from E. coli) (P. sojae, UniProt E0W4V5 18-670).
T1 sequence: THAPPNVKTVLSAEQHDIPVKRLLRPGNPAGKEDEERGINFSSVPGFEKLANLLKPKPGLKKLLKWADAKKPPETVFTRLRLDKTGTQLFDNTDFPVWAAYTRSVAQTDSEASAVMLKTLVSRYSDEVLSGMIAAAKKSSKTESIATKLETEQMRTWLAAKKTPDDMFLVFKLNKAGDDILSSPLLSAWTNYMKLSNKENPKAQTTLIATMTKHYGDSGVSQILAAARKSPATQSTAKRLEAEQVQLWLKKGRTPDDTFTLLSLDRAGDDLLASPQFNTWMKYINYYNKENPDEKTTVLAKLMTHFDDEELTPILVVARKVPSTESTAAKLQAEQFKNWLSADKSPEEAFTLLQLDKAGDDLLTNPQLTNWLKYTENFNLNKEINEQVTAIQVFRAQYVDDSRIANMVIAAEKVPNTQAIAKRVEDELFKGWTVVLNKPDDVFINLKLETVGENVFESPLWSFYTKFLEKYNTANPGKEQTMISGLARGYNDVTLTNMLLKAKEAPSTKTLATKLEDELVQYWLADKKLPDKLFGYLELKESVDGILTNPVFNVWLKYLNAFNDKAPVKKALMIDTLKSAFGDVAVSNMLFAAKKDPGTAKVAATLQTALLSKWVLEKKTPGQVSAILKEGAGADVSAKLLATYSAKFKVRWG
Put plainly: pull-down.

Chain of ATB’g (Arabidopsis PP2A B subunit) (Arabidopsis thaliana) (Q8RW96 whole entry): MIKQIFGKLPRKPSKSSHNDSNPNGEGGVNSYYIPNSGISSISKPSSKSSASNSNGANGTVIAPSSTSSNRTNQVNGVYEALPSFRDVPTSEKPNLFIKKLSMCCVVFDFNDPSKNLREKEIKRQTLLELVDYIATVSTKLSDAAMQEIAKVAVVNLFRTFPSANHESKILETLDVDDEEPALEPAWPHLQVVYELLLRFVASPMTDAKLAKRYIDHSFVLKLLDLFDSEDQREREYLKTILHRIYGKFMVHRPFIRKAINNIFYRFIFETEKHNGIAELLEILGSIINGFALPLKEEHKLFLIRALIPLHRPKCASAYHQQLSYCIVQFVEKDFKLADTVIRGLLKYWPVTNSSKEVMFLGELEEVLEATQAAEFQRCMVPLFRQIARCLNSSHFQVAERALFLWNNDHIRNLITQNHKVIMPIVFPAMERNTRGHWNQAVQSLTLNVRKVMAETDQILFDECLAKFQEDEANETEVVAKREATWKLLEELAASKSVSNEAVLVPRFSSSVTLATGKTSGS

With “6×His-PDF1 (full-length PDF1, purified from E. coli) (from UniProt Q9S728 24-306) (natural protein)”, the figures for the equilibrium dissociation constant (Kd) in test [1] and in test [2] were 350 nM and 3330 nM, respectively.

B1: RCN1 (purified from E. coli) (natural protein)
chain: MAMVDEPLYPIAVLIDELKNDDIQLRLNSIRRLSTIARALGEERTRKELIPFLSENSDDDDEVLLAMAEELGVFIPFVGGIEFAHVLLPPLESLCTVEETCVREKAVESLCKIGSQMKENDLVESFVPLVKRLAGGEWFAARVSACGIFHVAYQGCTDVLKTELRATYSQLCKDDMPMVRRAAASNLGKFATTVESTFLIAEIMTMFDDLTKDDQDSVRLLAVEGCAALGKLLEPQDCVARILPVIVNFSQDKSWRVRYMVANQLYELCEAVGPDCTRTDLVPAYVRLLRDNEAEVRIAAAGKVTKFCRLLNPELAIQHILPCVKELSSDSSQHVRSALASVIMGMAPILGKDSTIEHLLPIFLSLLKDEFPDVRLNIISKLDQVNQVIGIDLLSQSLLPAIVELAEDRHWRVRLAIIEYVPLLASQLGIGFFDDKLGALCMQWLQDKVYSIREAAANNLKRLAEEFGPEWAMQHLVPQVLDMVNNPHYLHRMMVLRAISLMAPVMGSEITCSKFLPVVVEASKDRVPNIKFNVAKLLQSLIPIVDQSVVDKTIRQCLVDLSEDPDVDVRYFANQALNSIDGSTAAQS
For B1, the binding result in test [3] is on record as “binds”.

For the origin of these results see article doi:10.1101/2023.05.05.539533 (bioRxiv, 2023).
